# Earlier results in publication PMC6916721.
# Columns and labels:
# His95 = His95 (UniProt position 121, YHCTPHPFMRG); conditions: reduced (Cu+) amicyanin, free (not in complex with MADH)
# [1] = molecular target: Amicyanin, reduced (Cu+) form (UniProt P22364); conditions: pH
# Chain of Amicyanin, reduced (Cu+) form (P22364 whole entry): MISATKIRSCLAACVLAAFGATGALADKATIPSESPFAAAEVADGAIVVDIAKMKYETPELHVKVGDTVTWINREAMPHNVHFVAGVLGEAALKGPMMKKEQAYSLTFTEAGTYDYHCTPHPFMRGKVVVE
"pKa, His95 of amicyanin (copper ligand, reduced Cu+ state) [1] [pH units]",Substance,pKa (His95)
,Amicyanin (Paracoccus denitrificans),7.7
7.7,Methylamine dehydrogenase (MADH),
